Measured values: US20250368745A1 (published 2025)

The binders below were run against T1, human IL-18BP (human, UniProt O95998 31-194) (assay: BLI, apparent KD).
T1 construct: UniProt printed as 095998; also called hIL-18BP
T1 sequence: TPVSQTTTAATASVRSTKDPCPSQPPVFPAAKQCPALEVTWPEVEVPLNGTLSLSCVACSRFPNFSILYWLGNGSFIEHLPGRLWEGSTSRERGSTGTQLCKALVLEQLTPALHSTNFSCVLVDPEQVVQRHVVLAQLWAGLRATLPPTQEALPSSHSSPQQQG

Binder	Kd [nM]
SA301a LC-Y94R (antibody, V domains shown) VH: QVQLQESGPGLVKPSQTLSLTCTVSGYSITSDYNSHWIRQPPGKGLEWIGYIHYSGSTNYNPSLKSRVTISRDTSKNQFSLKLSSVTAADTAVYYCARNYGSIYVNYFDYWGQGTLVTVSS VL: EIVLTQSPATLSLSPGERATLSCSASSSVSYMYWYQQKPGQAPRPLIYRTSNLASGIPARFSGSGSGTDFTLTISSLEPEDFAVYYCQQYHSRPTFGGGTKVEIK	0.29
SA301a LC-Y94N (antibody, V domains shown) VH: QVQLQESGPGLVKPSQTLSLTCTVSGYSITSDYNSHWIRQPPGKGLEWIGYIHYSGSTNYNPSLKSRVTISRDTSKNQFSLKLSSVTAADTAVYYCARNYGSIYVNYFDYWGQGTLVTVSS VL: EIVLTQSPATLSLSPGERATLSCSASSSVSYMYWYQQKPGQAPRPLIYRTSNLASGIPARFSGSGSGTDFTLTISSLEPEDFAVYYCQQYHSNPTFGGGTKVEIK	0.22
SA301a LC-P95A (antibody, V domains shown) VH: QVQLQESGPGLVKPSQTLSLTCTVSGYSITSDYNSHWIRQPPGKGLEWIGYIHYSGSTNYNPSLKSRVTISRDTSKNQFSLKLSSVTAADTAVYYCARNYGSIYVNYFDYWGQGTLVTVSS VL: EIVLTQSPATLSLSPGERATLSCSASSSVSYMYWYQQKPGQAPRPLIYRTSNLASGIPARFSGSGSGTDFTLTISSLEPEDFAVYYCQQYHSYATFGGGTKVEIK	0.26
SA301a LC-P95K (antibody, V domains shown) VH: QVQLQESGPGLVKPSQTLSLTCTVSGYSITSDYNSHWIRQPPGKGLEWIGYIHYSGSTNYNPSLKSRVTISRDTSKNQFSLKLSSVTAADTAVYYCARNYGSIYVNYFDYWGQGTLVTVSS VL: EIVLTQSPATLSLSPGERATLSCSASSSVSYMYWYQQKPGQAPRPLIYRTSNLASGIPARFSGSGSGTDFTLTISSLEPEDFAVYYCQQYHSYKTFGGGTKVEIK	0.22
SA301a LC-Y94L (antibody, V domains shown) VH: QVQLQESGPGLVKPSQTLSLTCTVSGYSITSDYNSHWIRQPPGKGLEWIGYIHYSGSTNYNPSLKSRVTISRDTSKNQFSLKLSSVTAADTAVYYCARNYGSIYVNYFDYWGQGTLVTVSS VL: EIVLTQSPATLSLSPGERATLSCSASSSVSYMYWYQQKPGQAPRPLIYRTSNLASGIPARFSGSGSGTDFTLTISSLEPEDFAVYYCQQYHSLPTFGGGTKVEIK	0.16
SA301a LC-T96M (antibody, V domains shown) VH: QVQLQESGPGLVKPSQTLSLTCTVSGYSITSDYNSHWIRQPPGKGLEWIGYIHYSGSTNYNPSLKSRVTISRDTSKNQFSLKLSSVTAADTAVYYCARNYGSIYVNYFDYWGQGTLVTVSS VL: EIVLTQSPATLSLSPGERATLSCSASSSVSYMYWYQQKPGQAPRPLIYRTSNLASGIPARFSGSGSGTDFTLTISSLEPEDFAVYYCQQYHSYPMFGGGTKVEIK	0.19
SA301a LC-P95N (antibody, V domains shown) VH: QVQLQESGPGLVKPSQTLSLTCTVSGYSITSDYNSHWIRQPPGKGLEWIGYIHYSGSTNYNPSLKSRVTISRDTSKNQFSLKLSSVTAADTAVYYCARNYGSIYVNYFDYWGQGTLVTVSS VL: EIVLTQSPATLSLSPGERATLSCSASSSVSYMYWYQQKPGQAPRPLIYRTSNLASGIPARFSGSGSGTDFTLTISSLEPEDFAVYYCQQYHSYNTFGGGTKVEIK	0.32
SA301a LC-Y94A (antibody, V domains shown) VH: QVQLQESGPGLVKPSQTLSLTCTVSGYSITSDYNSHWIRQPPGKGLEWIGYIHYSGSTNYNPSLKSRVTISRDTSKNQFSLKLSSVTAADTAVYYCARNYGSIYVNYFDYWGQGTLVTVSS VL: EIVLTQSPATLSLSPGERATLSCSASSSVSYMYWYQQKPGQAPRPLIYRTSNLASGIPARFSGSGSGTDFTLTISSLEPEDFAVYYCQQYHSAPTFGGGTKVEIK	1.15
SA301a LC-Y94G (antibody, V domains shown) VH: QVQLQESGPGLVKPSQTLSLTCTVSGYSITSDYNSHWIRQPPGKGLEWIGYIHYSGSTNYNPSLKSRVTISRDTSKNQFSLKLSSVTAADTAVYYCARNYGSIYVNYFDYWGQGTLVTVSS VL: EIVLTQSPATLSLSPGERATLSCSASSSVSYMYWYQQKPGQAPRPLIYRTSNLASGIPARFSGSGSGTDFTLTISSLEPEDFAVYYCQQYHSGPTFGGGTKVEIK	0.12
SA301a LC-T96I (antibody, V domains shown) VH: QVQLQESGPGLVKPSQTLSLTCTVSGYSITSDYNSHWIRQPPGKGLEWIGYIHYSGSTNYNPSLKSRVTISRDTSKNQFSLKLSSVTAADTAVYYCARNYGSIYVNYFDYWGQGTLVTVSS VL: EIVLTQSPATLSLSPGERATLSCSASSSVSYMYWYQQKPGQAPRPLIYRTSNLASGIPARFSGSGSGTDFTLTISSLEPEDFAVYYCQQYHSYPIFGGGTKVEIK	0.12
SA301a LC-P95E (antibody, V domains shown) VH: QVQLQESGPGLVKPSQTLSLTCTVSGYSITSDYNSHWIRQPPGKGLEWIGYIHYSGSTNYNPSLKSRVTISRDTSKNQFSLKLSSVTAADTAVYYCARNYGSIYVNYFDYWGQGTLVTVSS VL: EIVLTQSPATLSLSPGERATLSCSASSSVSYMYWYQQKPGQAPRPLIYRTSNLASGIPARFSGSGSGTDFTLTISSLEPEDFAVYYCQQYHSYETFGGGTKVEIK	0.44
SA301a LC-T96E (antibody, V domains shown) VH: QVQLQESGPGLVKPSQTLSLTCTVSGYSITSDYNSHWIRQPPGKGLEWIGYIHYSGSTNYNPSLKSRVTISRDTSKNQFSLKLSSVTAADTAVYYCARNYGSIYVNYFDYWGQGTLVTVSS VL: EIVLTQSPATLSLSPGERATLSCSASSSVSYMYWYQQKPGQAPRPLIYRTSNLASGIPARFSGSGSGTDFTLTISSLEPEDFAVYYCQQYHSYPEFGGGTKVEIK	0.31
SA301a LC-Y94I (antibody, V domains shown) VH: QVQLQESGPGLVKPSQTLSLTCTVSGYSITSDYNSHWIRQPPGKGLEWIGYIHYSGSTNYNPSLKSRVTISRDTSKNQFSLKLSSVTAADTAVYYCARNYGSIYVNYFDYWGQGTLVTVSS VL: EIVLTQSPATLSLSPGERATLSCSASSSVSYMYWYQQKPGQAPRPLIYRTSNLASGIPARFSGSGSGTDFTLTISSLEPEDFAVYYCQQYHSIPTFGGGTKVEIK	1.27
SA301a LC-Y94V (antibody, V domains shown) VH: QVQLQESGPGLVKPSQTLSLTCTVSGYSITSDYNSHWIRQPPGKGLEWIGYIHYSGSTNYNPSLKSRVTISRDTSKNQFSLKLSSVTAADTAVYYCARNYGSIYVNYFDYWGQGTLVTVSS VL: EIVLTQSPATLSLSPGERATLSCSASSSVSYMYWYQQKPGQAPRPLIYRTSNLASGIPARFSGSGSGTDFTLTISSLEPEDFAVYYCQQYHSVPTFGGGTKVEIK	2.35
SA301a LC-P95Y (antibody, V domains shown) VH: QVQLQESGPGLVKPSQTLSLTCTVSGYSITSDYNSHWIRQPPGKGLEWIGYIHYSGSTNYNPSLKSRVTISRDTSKNQFSLKLSSVTAADTAVYYCARNYGSIYVNYFDYWGQGTLVTVSS VL: EIVLTQSPATLSLSPGERATLSCSASSSVSYMYWYQQKPGQAPRPLIYRTSNLASGIPARFSGSGSGTDFTLTISSLEPEDFAVYYCQQYHSYYTFGGGTKVEIK	0.82
SA301a LC-Y94F (antibody, V domains shown) VH: QVQLQESGPGLVKPSQTLSLTCTVSGYSITSDYNSHWIRQPPGKGLEWIGYIHYSGSTNYNPSLKSRVTISRDTSKNQFSLKLSSVTAADTAVYYCARNYGSIYVNYFDYWGQGTLVTVSS VL: EIVLTQSPATLSLSPGERATLSCSASSSVSYMYWYQQKPGQAPRPLIYRTSNLASGIPARFSGSGSGTDFTLTISSLEPEDFAVYYCQQYHSFPTFGGGTKVEIK	0.13
SA301a LC-T96D (antibody, V domains shown) VH: QVQLQESGPGLVKPSQTLSLTCTVSGYSITSDYNSHWIRQPPGKGLEWIGYIHYSGSTNYNPSLKSRVTISRDTSKNQFSLKLSSVTAADTAVYYCARNYGSIYVNYFDYWGQGTLVTVSS VL: EIVLTQSPATLSLSPGERATLSCSASSSVSYMYWYQQKPGQAPRPLIYRTSNLASGIPARFSGSGSGTDFTLTISSLEPEDFAVYYCQQYHSYPDFGGGTKVEIK	0.13
SA301a LC-P95F (antibody, V domains shown) VH: QVQLQESGPGLVKPSQTLSLTCTVSGYSITSDYNSHWIRQPPGKGLEWIGYIHYSGSTNYNPSLKSRVTISRDTSKNQFSLKLSSVTAADTAVYYCARNYGSIYVNYFDYWGQGTLVTVSS VL: EIVLTQSPATLSLSPGERATLSCSASSSVSYMYWYQQKPGQAPRPLIYRTSNLASGIPARFSGSGSGTDFTLTISSLEPEDFAVYYCQQYHSYFTFGGGTKVEIK	2.01
SA301a LC-T96Y (antibody, V domains shown) VH: QVQLQESGPGLVKPSQTLSLTCTVSGYSITSDYNSHWIRQPPGKGLEWIGYIHYSGSTNYNPSLKSRVTISRDTSKNQFSLKLSSVTAADTAVYYCARNYGSIYVNYFDYWGQGTLVTVSS VL: EIVLTQSPATLSLSPGERATLSCSASSSVSYMYWYQQKPGQAPRPLIYRTSNLASGIPARFSGSGSGTDFTLTISSLEPEDFAVYYCQQYHSYPYFGGGTKVEIK	0.22
SA301a LC-P95L (antibody, V domains shown) VH: QVQLQESGPGLVKPSQTLSLTCTVSGYSITSDYNSHWIRQPPGKGLEWIGYIHYSGSTNYNPSLKSRVTISRDTSKNQFSLKLSSVTAADTAVYYCARNYGSIYVNYFDYWGQGTLVTVSS VL: EIVLTQSPATLSLSPGERATLSCSASSSVSYMYWYQQKPGQAPRPLIYRTSNLASGIPARFSGSGSGTDFTLTISSLEPEDFAVYYCQQYHSYLTFGGGTKVEIK	2.18
SA301a LC-Y94M (antibody, V domains shown) VH: QVQLQESGPGLVKPSQTLSLTCTVSGYSITSDYNSHWIRQPPGKGLEWIGYIHYSGSTNYNPSLKSRVTISRDTSKNQFSLKLSSVTAADTAVYYCARNYGSIYVNYFDYWGQGTLVTVSS VL: EIVLTQSPATLSLSPGERATLSCSASSSVSYMYWYQQKPGQAPRPLIYRTSNLASGIPARFSGSGSGTDFTLTISSLEPEDFAVYYCQQYHSMPTFGGGTKVEIK	1.93
SA301a LC-T96A (antibody, V domains shown) VH: QVQLQESGPGLVKPSQTLSLTCTVSGYSITSDYNSHWIRQPPGKGLEWIGYIHYSGSTNYNPSLKSRVTISRDTSKNQFSLKLSSVTAADTAVYYCARNYGSIYVNYFDYWGQGTLVTVSS VL: EIVLTQSPATLSLSPGERATLSCSASSSVSYMYWYQQKPGQAPRPLIYRTSNLASGIPARFSGSGSGTDFTLTISSLEPEDFAVYYCQQYHSYPAFGGGTKVEIK	0.17
